B1: BMP-14 (ligand, UniProt P43026 382-501, looked up)
chain: APLATRQGKRPSKNLKARCSRKALHVNFKDMGWDDWIIAPLEYEAFHCEGLCEFPLRSHLEPTNHAVIQTLMNSMDPESTPPTCCVPTRLSPISILFIDSANNVVYKQYEDMVVESCGCR
B2: bone morphogenetic protein-2 (ligand, UniProt P12643 283-396, looked up)
chain: QAKHKQRKRLKSSCKRHPLYVDFSDVGWNDWIVAPPGYHAFYCHGECPFPLADHLNSTNHAIVQTLVNSVNSKIPKACCVPTELSAISMLYLDENEKVVLKNYQDMVVEGCGCR
B3: soluble receptor activator of NF-κB ligand (ligand, UniProt O14788 140-317, looked up)
chain: IRAEKAMVDGSWLDLAKRSKLEAQPFAHLTINATDIPSGSHKVSLSSWYHDRGWAKISNMTFSNGKLIVNQDGFYYLYANICFRHHETSGDLATEYLQLMVYVTKTSIKIPSSHTLMKGGSTKYWSGNSEFHFYSINVGGFFKLRSGEEISIEVSNPSLLDPDQDATYFGAFKVRDID
B4: BMP-13 (ligand, UniProt Q6KF10 336-455, looked up)
chain: TAFASRHGKRHGKKSRLRCSKKPLHVNFKELGWDDWIIAPLEYEAYHCEGVCDFPLRSHLEPTNHAIIQTLMNSMDPGSTPPSCCVPTKLTPISILYIDAGNNVVYKQYEDMVVESCGCR

These binders were tested against Full-length recombinant human TSG-6 (human, UniProt P98066 18-277) (assay: SPR).
Full-length recombinant human TSG-6, sequence (P98066 18-277): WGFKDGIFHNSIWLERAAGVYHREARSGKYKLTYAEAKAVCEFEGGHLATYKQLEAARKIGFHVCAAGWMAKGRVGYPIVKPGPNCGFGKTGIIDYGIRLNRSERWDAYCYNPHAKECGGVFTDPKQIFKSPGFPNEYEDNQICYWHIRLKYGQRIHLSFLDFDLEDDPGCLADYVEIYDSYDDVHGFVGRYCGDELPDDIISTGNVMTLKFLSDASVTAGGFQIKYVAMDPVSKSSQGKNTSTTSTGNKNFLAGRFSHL

Binder	Kd [nM]
B1	184
B2	220
B3	1970
B4	236

Each binder was assayed against CUB_C_TSG6 (the CUB domain and C-terminal 27 amino acids of human TSG-6) (human, UniProt P98066 129-277) (assay: SPR).
CUB_C_TSG6 (the CUB domain and C-terminal 27 amino acids of human TSG-6), sequence (P98066 129-277): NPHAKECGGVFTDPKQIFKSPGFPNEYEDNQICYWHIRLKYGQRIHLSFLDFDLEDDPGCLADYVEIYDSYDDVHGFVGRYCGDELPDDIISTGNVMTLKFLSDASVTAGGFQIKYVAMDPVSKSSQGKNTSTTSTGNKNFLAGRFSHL

Binder	Kd [nM]
B1	10800
B2	2540
B4	6880

From PMC2533787 (The Journal of Biological Chemistry, 2008)
